The source of these data is PMC2805098 (Biochemistry, 2009).

Where two headings read alike, the source gives them in different places.

A short description of data set [1]: Midpoint potential determination, xanthine/xanthine oxidase reducing system. Format: physicochemical, Escherichia coli. The conditions noted are these: two-electron, pH 7.2, 25 °C, reference dye phenosafranine.
The conditions of data set [2]: pH 7.2, 25 °C; cited from earlier work.

B1: Phe223Leu (protein, UniProt P0AEZ1 1-296, looked up, variant F223L)
5,10-methylenetetrahydrofolate …: MSFFHASQRDALNQSLAEVQGQINVSFEFFPPRTSEMEQTLWNSIDRLSSLKPKFVSVTYGANSGERDRTHSIIKGIKDRTGLEAAPHLTCIDATPDELRTIARDYWNNGIRHIVALRGDLPPGSGKPEMYASDLVTLLKEVADFDISVAAYPEVHPEAKSAQADLLNLKRKVDAGANRAITQFFFDVESYLRFRDRCVSAGIDVEIIPGILPVSNFKQAKKLADMTNVRIPAWMAQMFDGLDDDAETRKLVGANIAMDMVKILSREGVKDFHFYTLNRAEMSYAICHTLGVRPGL
Turning to B1, the “Midpoint Potential” value in data set [1] was −240 ± 3 mV.

B2: Phe223Ala: Phe223Ala mutant of histidine-tagged E. coli methylenetetrahydrofolate reductase (protein, UniProt P0AEZ1 1-296, looked up, variant F223A)
5,10-methylenetetrahydrofolate …: MSFFHASQRDALNQSLAEVQGQINVSFEFFPPRTSEMEQTLWNSIDRLSSLKPKFVSVTYGANSGERDRTHSIIKGIKDRTGLEAAPHLTCIDATPDELRTIARDYWNNGIRHIVALRGDLPPGSGKPEMYASDLVTLLKEVADFDISVAAYPEVHPEAKSAQADLLNLKRKVDAGANRAITQFFFDVESYLRFRDRCVSAGIDVEIIPGILPVSNFKQAKKAADMTNVRIPAWMAQMFDGLDDDAETRKLVGANIAMDMVKILSREGVKDFHFYTLNRAEMSYAICHTLGVRPGL
modifications: histidine tag
Regarding B2, the “Midpoint Potential” value in data set [1] is listed as −236 ± 3 mV.

B3: Wild-type: wild-type histidine-tagged E. coli methylenetetrahydrofolate reductase (protein, UniProt P0AEZ1 1-296, looked up)
5,10-methylenetetrahydrofolate …: MSFFHASQRDALNQSLAEVQGQINVSFEFFPPRTSEMEQTLWNSIDRLSSLKPKFVSVTYGANSGERDRTHSIIKGIKDRTGLEAAPHLTCIDATPDELRTIARDYWNNGIRHIVALRGDLPPGSGKPEMYASDLVTLLKEVADFDISVAAYPEVHPEAKSAQADLLNLKRKVDAGANRAITQFFFDVESYLRFRDRCVSAGIDVEIIPGILPVSNFKQAKKFADMTNVRIPAWMAQMFDGLDDDAETRKLVGANIAMDMVKILSREGVKDFHFYTLNRAEMSYAICHTLGVRPGL
modifications: histidine tag
In the case of B3, the “Midpoint Potential” value in data set [2] is −237 ± 4 mV.
